Data reported in patent publication US20140377216A1, “ANTICANCER FUSION PROTEIN” (ADAMED SP. Z.O.O., priority 2011, published 2014).

Test system: HCT116
Assay: MTT cytotoxicity test on HCT116
Format: cell-based, human
Conditions: continuous incubation over 72 h

B1: Ex. 3^a: fusion protein SEQ. No. 3: (TRAIL121-281)-MMP-UROKIN-(SEQ. No. 35, synthetic 15-amino acids lytic peptide) (protein)
chain: RVAAHITGTRGRSNTLSSPNSKNEKALGRKINSWESSRSGHSFLSNLHLRNGELVIHEKGFYYIYSQTYFRFQEEIKENTKNDKQMVQYIYKYTSYPDPILLMKSARNSCWSKDAEYGLYSIYQGGIFELKENDRIFVSVTNEHLIDMDHEASFFGAFLVGPLGLAGRVVRKLLLRLLKKLLRLLK
modifications: synthesized, fusion protein comprising: a fragment of TRAIL protein, synthetic 15-amino acids lytic peptid and cleavage site sequences recognized by urokinase and metalloprotease.
For B1, the IC50 was 1.8785 mg/L.
